The record followed here is paper PMC12618663.

The target of assay [1] is TMexC1 adapter prepared alone, C-terminal 6x His tag (Klebsiella pneumoniae). The assay can be described thus: SEC.
The target in assay [2] is TMexC1 adapter, Strep-tagged, from the single plasmid pBAD24::tmexCD1-toprJ1 (Klebsiella pneumoniae). Put plainly: cryo-EM structure.
Assay [3] addresses TMexD1 transporter, C-terminal 6x His tag (pET28::tmexD1) (Klebsiella pneumoniae). The assay can be described thus: SEC. Background: In gel filtration, larger molecules generally elute earlier.
The target of assay [4] is TMexD1 transporter, tag-free, from the single plasmid pBAD24::tmexCD1-toprJ1 (Klebsiella pneumoniae). The assay can be described thus: cryo-EM structure.
For assay [5], the target named is TOprJ1 outer-membrane channel prepared alone, C-terminal 6x His tag (pET28::toprJ1) (Klebsiella pneumoniae). Put plainly: SEC.
Assay [6] shares this target. Put plainly: negative-stain electron microscopy.
Assay [7] concerns the target TOprJ1 outer-membrane channel, 6x His-tagged, from the single plasmid pBAD24::tmexCD1-toprJ1 (Klebsiella pneumoniae). Put plainly: cryo-EM structure.

For orientation: stoichiometry N means the number of molecules, sites or subunits per partner or assembly.

“TMexC1 adapter prepared alone, C-terminal 6x His tag (natural protein)” registered a stoichiometry N in assay [1] of 6.

As to “TMexC1 adapter, Strep-tagged, from the single plasmid pBAD24::tmexCD1-toprJ1 (natural protein)”, in assay [2], the stoichiometry N turned out to be 6. In the case of “TMexD1 transporter, C-terminal 6x His tag (pET28::tmexD1) (natural protein)”, in assay [3], the stoichiometry N was found to be 3. In assay [4], “TMexD1 transporter, tag-free, from the single plasmid pBAD24::tmexCD1-toprJ1 (natural protein)” had a stoichiometry N of 3. As to “TOprJ1 outer-membrane channel prepared alone, C-terminal 6x His tag (pET28::toprJ1) (natural protein)”, the stoichiometry N in assay [5] and in assay [6] was 3 throughout.

Substance “TOprJ1 outer-membrane channel, 6x His-tagged, from the single plasmid pBAD24::tmexCD1-toprJ1 (natural protein)” displayed a stoichiometry N in assay [7] of 3.
